B1: 5.6.c2618 (antibody, V domains shown)
VH: QVQLVQSGAEVKKPGASVNLSCKGSGYSFRTYYIHWVRQAPGQGLEWMGIINSSGGGTTYAQKFQGRVTMTRDTSTSTVYMELRSLKYEDTAMYYCARDRFPTVSGEPFAMDVWGQGTTVTVSS
VL: EVVLTQSPVTLSLSPGERATLSCRASQSVSGYLAWYQQKPGQVPRLLIYDTSNRATGIPARFSGSGSGTDFTLTISTIEPEDFAVYYCQQRSKWGVTFGGGTKVDIK
B2: 5.1.13G03 (antibody, V domains shown)
VH: QVQLQESGPGLVKPSGTLSLTCAVSGGSISSTNWWSWVRQPPGKGLEWIGEIYHSGSTNYNPSLKSRVTISLDKSKDQFSLKLSSVTAADTAVYYCAYSNTWTGGWGQGTLVTVSS
VL: DIQMTQSPSSLSASVGDRVTITCRASQSISSYLNWYQQKPGKAPKVLIYSAFSLQNGVPSRFSGSGSGTDFTLTISSLQPEDFATYYCQQSYSTPRTFGQGTKVEIK
B3: 9.6.1A09 (antibody, V domains shown)
VH: EVQLVESGGGLVQPGGSLRLSCAASGFTFRSYDMDWFRQSTGKGLEWVSAIGSAGDTYYTDSVKGRFTISRENGKNSLYLQMNSLRAGDTAVYYCARARFGDNVFDLWGRGTLVTVSS
VL: DIVMTQSPDSLAVSLGERASINCKSSQSVLSSSNTKNYLAWYQHKPGQPPKLLIYWASTRESGVPDRFSGSGSGTDFTLTISSLQPEDVAVYYCQQYYGAPYTFGQGTKVEIK
B4: 9.6.3A06 (antibody, V domains shown)
VH: EVQLLESGGGLVKPGGSLRLSCAASGFTFNEYMMNWVRQPPGKGLEWVSSISGTSTYINYADSVKGRFTISRDNAKNSLYLQMNSLRSDDTAMYYCARGSTGGYWGQGTLITVSS
VL: DIVMTQTPLSSAVTLGQPASISCRSSQRLVHSDGNTYLSWLHQRPGQPPRLLIYKVSLRFSGVPDRFSGSGAGTDFTLKISRVEAEDVGIYYCMQATQFPLTFGGGTKVEIK
B5: 2.10.1E06 (antibody, V domains shown)
VH: EVQLVESGGGLIQPGGSLRLSCTASGFTFSKFAMSWVRQAPGRGLEWISYISGGSKTKYYADSVRGRFTISRDNAKGSLFLQMNSLRAEDTAIYFCAKKGWQSTFLGMDYFYGMDVWGKGTTVTVSS
VL: EIVLTQSPGTLSLSPGERATLSCRASQSVTSNYLAWYQQKPGQAPRVLIYGASSRATGIPDRFSGSGSGTDFTLTISRLEPEDFAVYYCQQFGASPPYSFGQGTKVEIK
B6: 5.1.7D03 (antibody, V domains shown)
VH: EVQLVQSGGGLAQPGGSLRLSCAASGFTFRSYDMHWVRQVTGKGLEWVSAIGTAGDTYYTGSVKGRFTISRENDKSSLYLQMSSLRGEDTAVYYCARAAFGSHYFDYWGQGTLVTVSS
VL: EIVLTQSPGTLSLSPGERAALSCRASQSVSGNYFAWYQQKSGQAPRLLISAASSRATGVPDRFSASGSGTDFTLTISRLEPEDSAVYYCQQYGSSPLTFGQGTKVEIK

The binders below were run against Ebola Zaire (Kikwit strain) glycoprotein (Ebola Zaire (Kikwit strain)) (UniProt P87666) (assay: cell-based or functional assay).
Ebola Zaire (Kikwit strain) glycoprotein (Ebola Zaire (Kikwit strain)), sequence (P87666 33-676 limits assumed): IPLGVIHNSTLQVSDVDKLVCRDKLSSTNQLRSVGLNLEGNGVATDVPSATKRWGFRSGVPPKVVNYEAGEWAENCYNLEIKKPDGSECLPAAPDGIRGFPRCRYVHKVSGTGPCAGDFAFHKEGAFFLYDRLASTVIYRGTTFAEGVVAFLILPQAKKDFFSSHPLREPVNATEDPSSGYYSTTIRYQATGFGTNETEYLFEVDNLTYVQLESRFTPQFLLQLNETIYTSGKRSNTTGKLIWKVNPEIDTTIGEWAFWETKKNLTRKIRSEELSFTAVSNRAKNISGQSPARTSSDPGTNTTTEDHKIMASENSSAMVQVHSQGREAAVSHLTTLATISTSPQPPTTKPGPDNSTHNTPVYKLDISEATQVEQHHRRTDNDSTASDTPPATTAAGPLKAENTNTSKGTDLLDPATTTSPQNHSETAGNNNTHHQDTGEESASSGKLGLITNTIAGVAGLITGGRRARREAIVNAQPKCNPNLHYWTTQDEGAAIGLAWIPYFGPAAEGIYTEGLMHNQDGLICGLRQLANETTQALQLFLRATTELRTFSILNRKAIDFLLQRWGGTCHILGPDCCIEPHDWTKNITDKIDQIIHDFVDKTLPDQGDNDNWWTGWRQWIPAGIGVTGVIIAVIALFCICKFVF

| Binder | PRNT50 (ug/ml) for Ebola Zaire (Kikwit strain) [µg/mL] |
| --- | --- |
| B1 | 0.0061 |
| B2 | 0.0978 |
| B3 | 0.781 |
| B4 | 0.0488 |
| B5 | 0.781 |
| B6 | 1.57 |

Reference: patent publication US20230303667A1
